Measured values as given in the RNAGym collection of RNA variant scans (doi:10.7554/elife.80360).

B1: HDV Ribozyme (parent)
chain: GGCCGGCAUGGUCCCAGCCUCCUCGCUGGCGCCGGCUGGGCAACAUUCCGAGGGGACCGUCCCCUCGGUAAUGGCGAAUGGGACCCA

Variants of: B1
Experiment: self-cleavage, relative activity (ratio to wild type); higher = more cleavage; co-transcriptional

**Q.** Which self-cleavage does the source give for GGCCGGCAUGGUCCCAGCCUCCUCGCUGGCGCAGGCUGGGCAACAUUCCGAGGGGACCGUCCCCUCGGUAAUUGCGAAUGGGACCCA [C33A G73U] here?
**A.** The self-cleavage was 0.233.

**Q.** For GGCCGGCAUGGUCCCAGCCUCCUCGCUGGCGCAGGCUGGGCAACAUUCCGAGGGGACCGUCCCCUCGGUAAUAGCGAAUGGGACCCA [C33A G73A], which self-cleavage is on record?
**A.** Its self-cleavage is 0.147.

**Q.** With GGCCGGCAUGGUCCCAGCCUCCUCGCUGGCGCAGGCUGGGCAACAUUCCGAGGGGACCGUCCCCUCGGUAAUGGCGAAUGGGACCAA [C33A C86A] as the variant, how does the self-cleavage read?
**A.** Its self-cleavage is 0.277.

**Q.** For GGCCGGCAUGGUCCCAGCCUCCUCGCUGGCGCAGGCUUGGCAACAUUCCGAGGGGACCGUCCCCUCGGUAAUGGCGAAUGGGACCCA [C33A G38U], which self-cleavage is on record?
**A.** Its self-cleavage is 0.153.

**Q.** With GGCCGGCAUGGUCCCAGCCUCCUCGCUGGCGCAGGCUAGGCAACAUUCCGAGGGGACCGUCCCCUCGGUAAUGGCGAAUGGGACCCA [C33A G38A] as the variant, how does the self-cleavage read?
**A.** Its self-cleavage is 0.0386.

**Q.** For GGCCGGCAUGGUCCCAGCCUCCUCGCUGGCGCGGGGUGGGCAACAUUCCGAGGGGACCGUCCCCUCGGUAAUGGCGAAUGGGACCCA [C33G C36G], which self-cleavage is on record?
**A.** Its self-cleavage is 0.128.

**Q.** Which self-cleavage does the source give for GGCCGGCAUGGUCCCAGCCUCCUCGCUGGCGCGGGAUGGGCAACAUUCCGAGGGGACCGUCCCCUCGGUAAUGGCGAAUGGGACCCA [C33G C36A] here?
**A.** The self-cleavage was 0.107.

**Q.** With GGCCGGCAUGGUCCCAGCCUCCUCGCUGGCGCGGGCUGGGCAACAUUCCGAGGGGCCCGUCCCCUCGGUAAUGGCGAAUGGGACCCA [C33G A56C] as the variant, how does the self-cleavage read?
**A.** Its self-cleavage is 0.113.

**Q.** For GGCCGGCAUGGUCCCAGCCUCCUCGCUGGCGCGGGCUGGGCAACAUUCCGAGGGGGCCGUCCCCUCGGUAAUGGCGAAUGGGACCCA [C33G A56G], which self-cleavage is on record?
**A.** The self-cleavage was 0.222.

**Q.** For GGCCGGCAUGGUCCCAGCCUCCUCGCUGGCGCGGGCUGGGCAACAUUCCGAGGGGUCCGUCCCCUCGGUAAUGGCGAAUGGGACCCA [C33G A56U], which self-cleavage is on record?
**A.** Its self-cleavage is 0.228.

**Q.** With GGCCGGCAUGGUCCCAGCCUCCUCGCUGGCGCAGGCUGGGCAACAUUCCGAGGGGACCGUCCCCGCGGUAAUGGCGAAUGGGACCCA [C33A U65G] as the variant, how does the self-cleavage read?
**A.** The self-cleavage was 0.244.

**Q.** Which self-cleavage does the source give for GGCCGGCAUGGUCCCAGCCUCCUCGCUGGCGCAGGCUGGGCAACAUUCCGAGGGGACCGUCCCCCCGGUAAUGGCGAAUGGGACCCA [C33A U65C] here?
**A.** The self-cleavage was 0.158.

**Q.** With GGCCGGCAUGGUCCCAGCCUCCUCGCUGGCGCGGGCUGGGCAACAUUCCGAGGGGACCGUCCCCUCGGUAAUGGCGAAUGGGACCCA [C33G] as the variant, how does the self-cleavage read?
**A.** Its self-cleavage is 0.173.

**Q.** For GGCCGGCAUGGUCCCAGCCUCCUCGCUGGCGCAGGCUGGGCAACAUUCCGAGGGGACCGUCCCCUCGGUAAUGGCGAAUGGGACUCA [C33A C85U], which self-cleavage is on record?
**A.** The self-cleavage was 0.277.

**Q.** Which self-cleavage does the source give for GGCCGGCAUGGUCCCAGCCUCCUCGCUGGCGCAGGCUGGGCAACACUCCGAGGGGACCGUCCCCUCGGUAAUGGCGAAUGGGACCCA [C33A U46C] here?
**A.** The self-cleavage was 0.0875.

**Q.** Which self-cleavage does the source give for GGCCGGCAUGGUCCCAGCCUCCUCGCUGGCGCAGGCUGGGCAACAAUCCGAGGGGACCGUCCCCUCGGUAAUGGCGAAUGGGACCCA [C33A U46A] here?
**A.** The self-cleavage was 0.128.

**Q.** For GGCCGGCAUGGUCCCAGCCUCCUCGCUGGCGCGGGCUGGGCAACAUUCCGAGGGGACCGUCCCCUCGGUAGUGGCGAAUGGGACCCA [C33G A71G], which self-cleavage is on record?
**A.** The self-cleavage was 0.178.

**Q.** Which self-cleavage does the source give for GGCCGGCAUGGUCCCAGCCUCCUCGCUGGCGCGGGCUGGGCAACAUUCCGAGGGGACCGUCCCCUCGGUACUGGCGAAUGGGACCCA [C33G A71C] here?
**A.** The self-cleavage was 0.104.

**Q.** With GGCCGGCAUGGUCCCAGCCUCCUCGCUGGCGCGGGCUGGGCAACAUUCCGAGGGGACCGUCCCCUCGGUUAUGGCGAAUGGGACCCA [C33G A70U] as the variant, how does the self-cleavage read?
**A.** The self-cleavage was 0.383.

**Q.** For GGCCGGCAUGGUCCCAGCCUCCUCGCUGGCGCGGGCUGGGCAACGUUCCGAGGGGACCGUCCCCUCGGUAAUGGCGAAUGGGACCCA [C33G A45G], which self-cleavage is on record?
**A.** Its self-cleavage is 0.447.

**Q.** With GGCCGGCAUGGUCCCAGCCUCCUCGCUGGCGCAGGCUGGGCAACAUUCCGAUGGGACCGUCCCCUCGGUAAUGGCGAAUGGGACCCA [C33A G52U] as the variant, how does the self-cleavage read?
**A.** The self-cleavage was 0.161.

**Q.** For GGCCGGCAUGGUCCCAGCCUCCUCGCUGGCGCAGGCUGGGCAACAUUCCGACGGGACCGUCCCCUCGGUAAUGGCGAAUGGGACCCA [C33A G52C], which self-cleavage is on record?
**A.** The self-cleavage was 0.284.

**Q.** For GGCCGGCAUGGUCCCAGCCUCCUCGCUGGCGCAGGCUGGGCAACAUUCCGAAGGGACCGUCCCCUCGGUAAUGGCGAAUGGGACCCA [C33A G52A], which self-cleavage is on record?
**A.** The self-cleavage was 0.229.

**Q.** For GGCCGGCAUGGUCCCAGCCUCCUCGCUGGCGCGGGCUGGGAAACAUUCCGAGGGGACCGUCCCCUCGGUAAUGGCGAAUGGGACCCA [C33G C41A], which self-cleavage is on record?
**A.** The self-cleavage was 0.185.

**Q.** Which self-cleavage does the source give for GGCCGGCAUGGUCCCAGCCUCCUCGCUGGCGCGGGCUGGGCAACAUUCCGAGGGGACCGUCCCCUCGGUAAUGGCGAUUGGGACCCA [C33G A78U] here?
**A.** The self-cleavage was 0.0875.

**Q.** With GGCCGGCAUGGUCCCAGCCUCCUCGCUGGCGCAGGCUGGGCAACAUUCCGAGGGGACCGUCCCCUCGGUAAUGGCAAAUGGGACCCA [C33A G76A] as the variant, how does the self-cleavage read?
**A.** The self-cleavage was 0.228.

**Q.** For GGCCGGCAUGGUCCCAGCCUCCUCGCUGGCGCAGGCUGGGCAACAUUCCGAGGGGACCGUCCCCUCGGUAAUGGCUAAUGGGACCCA [C33A G76U], which self-cleavage is on record?
**A.** Its self-cleavage is 0.326.

**Q.** Which self-cleavage does the source give for GGCCGGCAUGGUCCCAGCCUCCUCGCUGGCGCAGGCUGGGCAACAUUCCGAGGGGACCGUCCCCUCGGUAAUGGCCAAUGGGACCCA [C33A G76C] here?
**A.** The self-cleavage was 0.251.

**Q.** With GGCCGGCAUGGUCCCAGCCUCCUCGCUGGCGCAGGCUGGGCAACAUUCCGAGGGGACCGUCCCCUCAGUAAUGGCGAAUGGGACCCA [C33A G67A] as the variant, how does the self-cleavage read?
**A.** The self-cleavage was 0.273.

**Q.** Which self-cleavage does the source give for GGCCGGCAUGGUCCCAGCCUCCUCGCUGGCGCGGGCUGGGCAACAUUCCGGGGGGACCGUCCCCUCGGUAAUGGCGAAUGGGACCCA [C33G A51G] here?
**A.** The self-cleavage was 0.111.

**Q.** With GGCCGGCAUGGUCCCAGCCUCCUCGCUGGCGCAGGCUGGGCAACAUUCCGAGGCGACCGUCCCCUCGGUAAUGGCGAAUGGGACCCA [C33A G54C] as the variant, how does the self-cleavage read?
**A.** Its self-cleavage is 0.222.

**Q.** Which self-cleavage does the source give for GGCCGGCAUGGUCCCAGCCUCCUCGCUGGCGCAGGCUGGGCAACAUUCCGAGGUGACCGUCCCCUCGGUAAUGGCGAAUGGGACCCA [C33A G54U] here?
**A.** The self-cleavage was 0.198.
